# In patent US20140378382A1 (WISCONSIN ALUMNI RESEARCH FOUNDATION, published 2014):
# Non-standard residues stand in square brackets, D forms with d. Primed or numbered codes have the meaning given here. No end group written: not given here. APC = aminopyrrolidine carboxylic acid (2-aminopyrrolidine-4-carboxylic acid); ACPC(3) = 2-aminocyclopentane carboxylic acid (cyclic beta residue); ACPC″ = 2-aminocyclopentane carboxylic acid (X); ACPC = 2-aminocyclopentane carboxylic acid; β3hW = N[C@H](CC(=O)O)Cc1c[nH]c2ccccc12; hArg = N=C(N)NCCCC[C@H](N)C(=O)O; β3hE = N[C@@H](CCC(=O)O)CC(=O)O; β3hF = N[C@H](CC(=O)O)Cc1ccccc1; β3hL = CC(C)C[C@H](N)CC(=O)O; β3hK = NCCCC[C@H](N)CC(=O)O; β3hM = CSCC[C@H](N)CC(=O)O; β3hD = NC(CC(=O)O)CC(=O)O; β3hS = N[C@@H](CO)CC(=O)O; Aib = CC(C)(N)C(=O)O
# T1: delNT PTHR1 (human, UniProt Q03431 27-593)
# T1 sequence (looked up): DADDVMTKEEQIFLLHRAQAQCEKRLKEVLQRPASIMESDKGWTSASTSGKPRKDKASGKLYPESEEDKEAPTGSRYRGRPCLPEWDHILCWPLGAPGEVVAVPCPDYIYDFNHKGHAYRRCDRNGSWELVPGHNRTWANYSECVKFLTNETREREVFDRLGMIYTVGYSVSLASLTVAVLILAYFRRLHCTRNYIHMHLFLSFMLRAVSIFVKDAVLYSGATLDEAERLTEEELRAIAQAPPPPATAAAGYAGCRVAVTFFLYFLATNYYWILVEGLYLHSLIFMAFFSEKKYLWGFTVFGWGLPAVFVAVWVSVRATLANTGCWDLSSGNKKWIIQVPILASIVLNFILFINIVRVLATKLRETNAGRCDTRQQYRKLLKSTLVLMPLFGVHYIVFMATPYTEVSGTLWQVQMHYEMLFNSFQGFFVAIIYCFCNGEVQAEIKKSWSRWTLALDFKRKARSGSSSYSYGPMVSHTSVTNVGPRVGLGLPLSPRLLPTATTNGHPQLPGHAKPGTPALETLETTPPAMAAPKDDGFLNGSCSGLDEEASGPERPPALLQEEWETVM
# T2: rat parathyroid hormone receptor 1, wild-type (rPTHR-1) (rat, UniProt P25961 27-591)
# T2 sequence (looked up): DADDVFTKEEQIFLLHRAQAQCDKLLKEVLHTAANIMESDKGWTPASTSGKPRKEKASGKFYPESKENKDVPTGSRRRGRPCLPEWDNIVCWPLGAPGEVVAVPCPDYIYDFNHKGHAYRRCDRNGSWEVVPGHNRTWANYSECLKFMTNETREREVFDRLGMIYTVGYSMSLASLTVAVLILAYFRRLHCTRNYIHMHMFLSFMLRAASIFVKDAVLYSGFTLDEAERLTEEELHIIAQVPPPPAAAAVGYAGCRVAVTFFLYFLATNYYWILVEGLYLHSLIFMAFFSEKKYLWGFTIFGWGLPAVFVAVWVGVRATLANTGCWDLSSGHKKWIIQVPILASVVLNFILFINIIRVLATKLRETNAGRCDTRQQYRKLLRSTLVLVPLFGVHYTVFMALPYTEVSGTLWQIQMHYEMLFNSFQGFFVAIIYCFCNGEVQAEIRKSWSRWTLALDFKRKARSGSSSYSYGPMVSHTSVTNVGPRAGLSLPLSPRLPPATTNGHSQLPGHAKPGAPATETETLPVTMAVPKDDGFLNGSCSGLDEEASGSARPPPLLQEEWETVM
# T3: PTHR-1 (species and cells not stated for the assay) (Homo sapiens (Human), UniProt Q03431 27-593)
# T3 sequence: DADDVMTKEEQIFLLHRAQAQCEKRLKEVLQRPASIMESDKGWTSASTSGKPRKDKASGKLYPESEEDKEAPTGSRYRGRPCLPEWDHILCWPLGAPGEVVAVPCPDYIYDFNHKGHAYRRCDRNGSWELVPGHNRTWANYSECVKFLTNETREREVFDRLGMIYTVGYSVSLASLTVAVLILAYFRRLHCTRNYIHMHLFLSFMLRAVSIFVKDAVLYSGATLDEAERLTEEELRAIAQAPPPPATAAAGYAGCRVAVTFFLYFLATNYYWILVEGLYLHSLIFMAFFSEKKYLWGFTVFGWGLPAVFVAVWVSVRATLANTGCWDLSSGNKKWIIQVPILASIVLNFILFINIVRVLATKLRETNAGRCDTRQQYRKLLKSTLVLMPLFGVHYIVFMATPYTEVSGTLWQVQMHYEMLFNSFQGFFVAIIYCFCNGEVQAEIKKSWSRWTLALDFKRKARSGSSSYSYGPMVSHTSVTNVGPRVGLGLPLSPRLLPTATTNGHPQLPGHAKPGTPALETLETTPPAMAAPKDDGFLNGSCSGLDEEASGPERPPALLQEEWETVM
# B1: D6_ACPC(1,5,7) (peptide)
# peptide: [ACPC]VSE[ACPC]Q[ACPC]MHNLGKWLNSMERVEWLRKKLQDVHNF-NH2
# modifications: not fully specified; printed as XVSEXQXMHNLGKWLNSMERVEWLRKKLQDVHNF-NH2; also: D6 β3 residues, positions not shown (marking lost)
# B2: CycD6_ACPC(1,7) (peptide)
# peptide: [ACPC]VSEIQ[ACPC]MHNLGK[ACPC]LNS[ACPC]ERVEWLR[APC]KLQDVHN[ACPC]-NH2
# modifications: not fully specified; printed as XVSEIQXMHNLGKXLNSXERVEWLRZKLQDVHNX-NH2; also: further β3 residues, positions not shown (marking lost)
# B3: CycD6_ACPC(1,5,7) (peptide)
# peptide: [ACPC]VSE[ACPC]Q[ACPC]MHNLGK[ACPC]LNS[ACPC]ERVEWLR[APC]KLQDVHN[ACPC]-NH2
# modifications: not fully specified; printed as XVSEXQXMHNLGKXLNSXERVEWLRZKLQDVHNX-NH2; also: further β3 residues, positions not shown (marking lost)
# B4: D6_ACPC(1,7) (peptide)
# peptide: [ACPC]VSEIQ[ACPC]MHNLGKWLNSMERVEWLRKKLQDVHNF-NH2
# modifications: not fully specified; printed as XVSEIQXMHNLGKWLNSMERVEWLRKKLQDVHNF-NH2; also: D6 β3 residues, positions not shown (marking lost)
# Target: T1, delNT PTHR1
# Experiment: cell-based or functional assay
Binder,Fold PTH,cAMP EC50
SVSEIQLMZNLGKHLNSMERVEWLRKKLQDVHNF (APC (Z) at 9; C-terminal amide) [APC(9) PTH(1-34)],87 fold,5400 nM
SVSEIQL[β3hM]HNLGKHLNSMERVEWLRKKLQDVHNF-NH2 [β3Met(8) PTH(1-34)],–,20000 nM
SVS[ACPC]IQLMHNLGKHLNSMERVEWLRKKLQDVHNF-NH2 [ACPC(4) PTH(1-34)],510 fold,32000 nM
SVSEIQ[β3hL]MHNLGKHLNSMERVEWLRKKLQDVHNF-NH2 [β3Leu(7) PTH(1-34)],–,67000 nM
SV[β3hS]EIQLMHNLGKHLNSMERVEWLRKKLQDVHNF-NH2 [β3Ser(3) PTH(1-34)],–,340000 nM
SVS[β3hE]IQLMHNLGKHLNSMERVEWLRKKLQDVHNF-NH2 [β3Glu(4) PTH(1-34)],–,15000 nM

# Target: T2, rat parathyroid hormone receptor 1, …
# Experiment: cell-based or functional assay
row,Binder,cAMP Max
1,"SVSEIQLMHNLGKHLNSMERVEWLRKKLQDVHNF-NH2 (also: three β3 residues, αααβ pattern, positions not given here) [C3]",68 cps × 10-3
2,"SVSEIQLMHNLGKHLNSMERVEWLRKKLQDVHNF-NH2 (also: five β3 residues, αααβ pattern, positions not given here) [D5]",43 cps × 10-3
3,SVSEIQLMHNLGKHLNSMERVEWLRKKLQDVHNF-NH2 (not fully specified (residue 19)) [A5],54 cps × 10-3
4,"SVSEIQLMHNLGKHLNSMERVEWLRKKLQDVHNF-NH2 (also: five β3 residues, αααβ pattern, positions not given here) [C5]",48 cps × 10-3
5,"SVSEIQLMHNLGKHLNSMERVEWLRKKLQDVHNF-NH2 (also: three β3 residues, αααβ pattern, positions not given here) [D3]",65 cps × 10-3

# Target: T3, PTHR-1 (species and cells not stated …)
# Experiment: cell-based or functional assay
Binder,Fold PTH,cAMP EC50
B1,2040 fold,167 nM
B2,7.3 fold,0.59 nM
B3,266 fold,21.7 nM
SVSEIQLMHNLGK[ACPC]LNS[ACPC]ERV[APC]WLR[APC]KLQ[ACPC]VHN[ACPC]-NH2 (not fully specified; printed as SVSEIQLMHNLGKXLNSXERVZWLRZKLQXVHNX-NH2) [FcycD6],3.2 fold,0.26 nM
"[ACPC]VSEIQ[ACPC]MHNLGKHLNSMERVEWLRKKLQDVHNF-NH2 [ACPC(1,7)]",1.7 fold,0.14 nM
B4,22.6 fold,1.84 nM
"SVSEIQLMHNLGK[ACPC″]LNS[ACPC″]ERV[β3hE]WLR[APC]KLQ[β3hD]VHN[ACPC″]-NH2 (also: β3 residues (bold, underlined) not marked in the text) [cycD6]",1.3 fold,0.1 nM
"[ACPC″]VSEIQ[ACPC″]MHNLGK[ACPC″]LNS[ACPC″]ERV[APC]WLR[APC]KLQ[ACPC″]VHN[ACPC″]-NH2 [FcycD6_ACPC(1,7)]",8.7 fold,0.71 nM

# Target: T3, PTHR-1 (species and cells not stated …)
# Experiment: cell-based or functional assay
# Remark: another data set of the same source
Binder,Fold PTH,cAMP EC50
"[ACPC″]V[Aib]E[ACPC″]Q[ACPC″]MHQ[hArg]AK[ACPC″]LNS[ACPC″]RRV[APC]WLR[APC]KLQ[ACPC″]VHN[ACPC″]-NH2 [M-X1,5,7-FcycD6]",9.5 fold,0.78 nM
"[ACPC″]V[Aib]E[ACPC″]Q[ACPC″]MHQ[hArg]AKWLNSMRRVEWLRKKLQDVHNF-NH2 [M-ACPC(1,5,7)]",4.9 fold,0.4 nM
"[ACPC″]V[Aib]EIQ[ACPC″]MHQ[hArg]AK[ACPC″]LNS[ACPC″]RRV[APC]WLR[APC]KLQ[ACPC″]VHN[ACPC″]-NH2 [M-FcycD6_ACPC(1,7)]",21.8 fold,1.77 nM
"[ACPC″]V[Aib]E[ACPC″]Q[ACPC″]MHQ[hArg]AK[β3hW]LNS[β3hM]RRV[β3hE]WLR[β3hK]KLQ[β3hD]VHN[β3hF]-NH2 (also: β3 residues (bold, underlined) not marked in the text) [M-X1,5,7-D6]",9.7 fold,0.79 nM
AVAEIQ[ACPC″]MHQ[hArg]AK[ACPC″]LNS[ACPC″]RRV[APC]WLR[APC]KLQ[ACPC″]VHN[ACPC″]-NH2 [M-FcycD6],6.3 fold,0.51 nM
"[ACPC″]V[Aib]EIQ[ACPC″]MHQ[hArg]AK[β3hW]LNS[β3hM]RRV[β3hE]WLR[β3hK]KLQ[β3hD]VHN[β3hF]-NH2 (also: β3 residues (bold, underlined) not marked in the text) [M-D6_ACPC(1,7)]",10.2 fold,0.83 nM
"H[ACPC(3)]V[Aib]E[ACPC(3)]Q[ACPC(3)]MHQ[hArg]AK[ACPC(3)]LNS[ACPC(3)]RRV[β3hE]WLR[APC]KLQ[β3hD]VHN[ACPC(3)]-NH2 (not fully specified) [M-X1,5,7-CycD6]",3.8 fold,0.31 nM
"AVAEIQ[ACPC″]MHQ[hArg]AKWLNSMRRVEWLRKKLQDVHNF-NH2 (not fully specified (residues 14, 18, 22, 26, 30, 34)) [M-D6]",5.4 fold,0.44 nM
"[ACPC″]V[Aib]EIQ[ACPC″]MHQ[hArg]AKWLNSMRRVEWLRKKLQDVHNF-NH2 [M-ACPC(1,7)]",6.3 fold,0.52 nM
